Laboratory results reported in the supplement of paper PMC12764529.
± gives the half width of the 95% confidence interval.

Assay: folding stability dG unfold from trypsin proteolysis; higher = more stable
In short: (§1)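 K50 was inferred by Bayesian fitting of sequencing counts obtained after protease digestion of designed mini-proteins. Unfolding free energy was derived by comparison with a sequence-predicted unfolded-state K50 and a shared folded-state K50, for each protease or both combined. The mini-proteins were under 80 residues, had no cysteine, were carried in a PA-tagged cDNA display construct, and were kept only if AlphaFold2 dimer inter-PAE exceeded 15.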

Row | Sequence | folding stability dG unfold
1 | SAGGSAGGMKLLKVVVERKDGSKRELEIPEELLVELGRPPTPEEIAKLLGIKPEDIVRVEIEDVSAGGSAGG [r6_166_TrMRF] | 3.65 ± 0.15 kcal/mol
2 | SAGGSAKITIEKVDDQYRITVTVPVYDENGNKVPLTFDFVYPSDDPDAFLDDVIRRIRELNPDLEKSAGGSA [r15_1050_TrMRF] | 2.3 ± 0.073 kcal/mol
3 | SAGGMKLTVEIEYDEETEEVTIRIRNEETGEEIEITLSKEEVEKLLEALEKNPEKSIEEALLEALKESAGGS [r8_484_TrROS_Hall] | 2.58 ± 0.23 kcal/mol
4 | SAGGSAGGSAGGSSSIYYDPRYPNVAVNPETGEAVTGIPLEELEKLGATPVGPDWVRIDSAGGSAGGSAGGS [r4_306_TrMRF] | -0.659 ± 0.15 kcal/mol
5 | SAGGSAGGSSTATFTLSRLPDGTYRLTLYDPSTNKVTTEEVPASRPDEYSAVTVSSDGTVTTASAGGSAGGS [r20_11_JUSTAS] | 0.771 ± 0.076 kcal/mol
6 | SAGGSAGGSAGMVLRVRTKDGKVIEIKDLSEELKNMTAEQLAEELKKKFPDLKIEVEEVPSAGGSAGGSAGG [r17_42_TrROS_Hall] | 2.19 ± 0.14 kcal/mol
7 | SAGMVLEYEGVDEEEKLLARAEELRAELRARHPRVRVELEVEVKPTPGNKYRYRVTLTIEPLAPDEARASAG [r5_936_JUSTAS] | 1.75 ± 0.11 kcal/mol
8 | SAGGSAGGSKKPPIYKIEIEIDGKKLTIEAKSKEEALKALKEELKKKYPNLKITKIKIEKVKPSAGGSAGGS [r12_429_TrROS_Hall] | 1.52 ± 0.088 kcal/mol
9 | SAGGSAGMPKVRIPIEEDPENGNILIRVKMPNSGREHEYHIPGNLKEAKENFEDHFGFDITDVEIWSAGGSA [r15_101_TrROS] | 0.364 ± 0.23 kcal/mol
10 | SAGGSAGGPLENDIPIPLTVPLPGPGTAELFLLPSTGEVLALVEGKPYLVSLEDLKDGVFRLGLSAGGSAGG [r6_939_TrMRF] | -0.577 ± 0.36 kcal/mol
11 | SAGGSAGGSKKDPEDNPEQAKPPIPPIRVEIYPPDGQPETFEFHSLEEITEWIQERGYTVKIESAGGSAGGS [r12_244_TrROS] | 0.668 ± 0.022 kcal/mol
12 | SAGGSALPEDATVKVEVTVVTLVYDPETGGFYLKVAKVEKEIRFDPKNGKLEVKVKKVEVKVFKLGSAGGSA [r15_517_TrMRF] | 2.96 ± 0.21 kcal/mol
13 | SIKELAKELPGFQVSVEPDDPGQVKITIMVPDDPQQQKRFQNKIIELANDIQGEHGMPVTIEIQPVPPGDSA [r9_1099_TrROS] | -0.238 ± 0.056 kcal/mol
14 | SAGGSAGGSAGKPEVEVETRLIKIDEEKGYYLRVTRVRVKNEDGSEFEFLSIEIIPKEDLSAGGSAGGSAGG [r11_51_TrROS_Hall] | 2.6 ± 0.098 kcal/mol
15 | SAGGSAGGSDKYVVVIRVVNKETKKVTTLVFEGLKTPEELKAAVEALLPPGVVKVEIRVVKLPSAGGSAGGS [r20_29_TrROS_Hall] | 2.89 ± 0.18 kcal/mol
16 | SAGGGSTTTRTIGSKDGTVATVTVTTDPATGTTTVTISSPSPEVLEEVAAQLGLPVREVLPDGTVVLASAGG [r13_937_JUSTAS] | 0.659 ± 0.023 kcal/mol
17 | SAMKIKIKVIGVLKPENHALIFLELDDSIPPEIPVVIRIKNENGEILEIPIEGNRALLVVDDRKIEILTSAG [r14_350_TrMRF] | 1.82 ± 0.08 kcal/mol
18 | SAGGSAGGSAKKKILVKKPDGRLLLIEIDKDKPNTVRIYDIDTGKKIELSVEDLKKLKIKKSAGGSAGGSAG [r3_451_TrROS_Hall] | 1.57 ± 0.034 kcal/mol
19 | SSEELRELILNEAAKLGVKIKEIKVKEDPSTNTVSIEITVPDGKVIKLSFTRTSDGGYSYDINELKAGLESA [r9_85_JUSTAS] | 5.35 ± 0.35 kcal/mol
20 | SAPLTPEEAEEWAETLADELADKAGIPNVEIKVEPSPDGYWTAEIRFPNNGKKIRITWENGRPKITEIESAG [r14_925_TrROS] | 2.84 ± 0.2 kcal/mol
21 | SAGGSKKVDIKPGKVKKVEVKTLPNGKKLLVLYFPLEDGKEKVVVISSDFKTPEEALEAAYKQLGKSAGGSA [r2_347_TrMRF] | 1.02 ± 0.049 kcal/mol

Row | Sequence | folding stability dG unfold
22 | SAEELARRLRELGLEVEIVRIERERRPDGTIRIEVRLDGELVAELEVRLPPPPPPVEVVRDADGRERRVRSA [r9_442_TrROS_Hall] | 1.63 ± 0.18 kcal/mol
23 | SAGGSAGGSPPPRFRVVVVFEDGTRREFDLTPEELVAFAEVVPDVVVEELPPGEVRITVRLPGSAGGSAGGS [r20_231_TrMRF] | 2.45 ± 0.081 kcal/mol
24 | SAGGMIVIEVETEEEALEAARELAKKLLEKLKEEGIEEVTLTVTVEVVDEKTKEVKTYTLTLTVKKPSAGGS [r8_163_TrROS_Hall] | 3.94 ± 0.23 kcal/mol
25 | SAGGSAGGSMRIKTIKVIPQDDGMYSINITFPGVEREIPIPPQMPPDQITEIEIPIYFDGEPPSAGGSAGGS [r12_673_TrROS] | -0.257 ± 0.16 kcal/mol
26 | SEVVFTLKDKPSPEELLKALAAVPGFSLETILKNTKVSPGKTGPKLTIKKEDFEKLEKENPEALEIIRSGSA [r9_160_TrMRF] | 1.2 ± 0.026 kcal/mol
27 | SAGGSAGGSKKKLKLVIKLKKGEKAPTAEELKKKLEELGFEIKDIKVVEKDGELYVVLEIELKSAGGSAGGS [r12_1052_TrROS_Hall] | 2.67 ± 0.35 kcal/mol
28 | SAGGSAGGSAGGSGVSITTTLPVKTTVLQPFNTFENKLLLKEVEKTILTTVTLTLPPLLSAGGSAGGSAGGS [r4_326_JUSTAS] | 0.316 ± 0.068 kcal/mol
29 | SAGGSAGGSADAVVVEVTLPGGGKARAVFFPDGSVVIVVDFPDGRRAVIFLENNEIVVLPVDSAGGSAGGSA [r18_285_TrMRF] | 3.73 ± 0.2 kcal/mol
30 | SAGGSAGGSAMVVEERRLPDDLLVRTEVEPVEDNELPGPALRVTVTTVDLKTGEETPEVIPESAGGSAGGSA [r18_66_JUSTAS] | -0.713 ± 0.16 kcal/mol
31 | SAGMDLKIEEEEDPLSGSRLFRIELRDPDGKYNLTVVVLKENGKIKAVLVLRENTGEPLTLPELVELLESAG [r5_872_TrMRF] | 2.83 ± 0.19 kcal/mol
32 | SAGGSAGGSAGGMYRVEIETKGNKKVYIFPNLSPEELAKFLEDPKVVSYKVEKLSPEELESAGGSAGGSAGG [r7_502_JUSTAS] | 2.04 ± 0.077 kcal/mol
33 | SAGGWFTWDIPVKADDPKEAVDYAKEQIKNIMREHHPGMPPGMKIDDIKVEPPPNGWYWVKITIEIDPPSAG [r5_320_TrROS] | 1.83 ± 0.083 kcal/mol
34 | SAGGSAGGSAGGSKLPEGAKITITKNEDGSYTLTVTFPNGEKVEITMSEDELKKLLEALSAGGSAGGSAGGS [r4_16_TrROS_Hall] | 3.84 ± 0.15 kcal/mol
35 | SAGGSAGGSAGGSVIEVKDPNGKKYIIIKTPDPNVYPVTVIPPDGTTTVTPVSDYSKLLSSAGGSAGGSAGG [r7_769_JUSTAS] | -0.893 ± 0.4 kcal/mol
36 | SAGGSAGGSAGITIWFPYDNIPEILEEAQKNGMEIKSVERVPDGWYLIKMPGKPIEIHIWSAGGSAGGSAGG [r17_379_TrROS] | 0.94 ± 0.032 kcal/mol
37 | SAGGSAGGNTITVFMPYSQARELAEELRDEGITVDIQPYPDWMFITVEIKVPKIDPEDNPDNKDSAGGSAGG [r6_392_TrROS] | 1.43 ± 0.047 kcal/mol
38 | SAGGSAGGSAGGKVTIEFPTSRVELYPLPGPFVLAEVSFPNRKLLALAHPDGDEILILPISAGGSAGGSAGG [r7_683_TrMRF] | 0.929 ± 0.028 kcal/mol
39 | SMSPEARALARELAERLRELFPGAEIEIRVEVEVNEDGEVTIRVEIRVRPAPPPEVRVVRDEDGRERRLRSA [r9_82_TrROS_Hall] | 1.09 ± 0.1 kcal/mol
40 | SAGGMPKTIEVEIVFKRDEEGKIGIDKIKKAAEELAKKFPEVKKVEVDIEEDPETDYVKVKVKVEVESAGGS [r8_258_TrMRF] | 1.75 ± 0.059 kcal/mol
41 | SAGGSAGGSAGMTITKTEDGTYRLTLTVTETLPNGSTVTRTVTLTVPLEDAEEILAALPPSAGGSAGGSAGG [r11_505_TrROS_Hall] | 2.52 ± 0.11 kcal/mol
42 | SAGGSAGGSAGMEYSIDKASGKILIKIPDEDKTWILYDPKTGEKYIFKQIGGKWYKVEKVSAGGSAGGSAGG [r11_1036_TrMRF] | 1.57 ± 0.058 kcal/mol

Assay: folding stability dG unfold from chymotrypsin proteolysis; higher = more stable
In short: as §1

Row | Sequence | folding stability dG unfold
43 | SAGGSAGGMKLLKVVVERKDGSKRELEIPEELLVELGRPPTPEEIAKLLGIKPEDIVRVEIEDVSAGGSAGG [r6_166_TrMRF] | 4.87 ± 0.21 kcal/mol
44 | SAGGSAKITIEKVDDQYRITVTVPVYDENGNKVPLTFDFVYPSDDPDAFLDDVIRRIRELNPDLEKSAGGSA [r15_1050_TrMRF] | 3.01 ± 0.084 kcal/mol
45 | SAGGMKLTVEIEYDEETEEVTIRIRNEETGEEIEITLSKEEVEKLLEALEKNPEKSIEEALLEALKESAGGS [r8_484_TrROS_Hall] | 2.33 ± 0.11 kcal/mol
46 | SAGGSAGGSAGGSSSIYYDPRYPNVAVNPETGEAVTGIPLEELEKLGATPVGPDWVRIDSAGGSAGGSAGGS [r4_306_TrMRF] | 0.196 ± 0.061 kcal/mol
47 | SAGGSAGGSSTATFTLSRLPDGTYRLTLYDPSTNKVTTEEVPASRPDEYSAVTVSSDGTVTTASAGGSAGGS [r20_11_JUSTAS] | 0.338 ± 0.11 kcal/mol
48 | SAGGSAGGSAGMVLRVRTKDGKVIEIKDLSEELKNMTAEQLAEELKKKFPDLKIEVEEVPSAGGSAGGSAGG [r17_42_TrROS_Hall] | 2.26 ± 0.05 kcal/mol
49 | SAGMVLEYEGVDEEEKLLARAEELRAELRARHPRVRVELEVEVKPTPGNKYRYRVTLTIEPLAPDEARASAG [r5_936_JUSTAS] | 2.09 ± 0.11 kcal/mol
50 | SAGGSAGGSKKPPIYKIEIEIDGKKLTIEAKSKEEALKALKEELKKKYPNLKITKIKIEKVKPSAGGSAGGS [r12_429_TrROS_Hall] | 2.4 ± 0.14 kcal/mol
51 | SAGGSAGMPKVRIPIEEDPENGNILIRVKMPNSGREHEYHIPGNLKEAKENFEDHFGFDITDVEIWSAGGSA [r15_101_TrROS] | -0.984 ± 0.58 kcal/mol
52 | SAGGSAGGPLENDIPIPLTVPLPGPGTAELFLLPSTGEVLALVEGKPYLVSLEDLKDGVFRLGLSAGGSAGG [r6_939_TrMRF] | 0.989 ± 0.17 kcal/mol
53 | SAGGSAGGSKKDPEDNPEQAKPPIPPIRVEIYPPDGQPETFEFHSLEEITEWIQERGYTVKIESAGGSAGGS [r12_244_TrROS] | 1.12 ± 0.051 kcal/mol
54 | SAGGSALPEDATVKVEVTVVTLVYDPETGGFYLKVAKVEKEIRFDPKNGKLEVKVKKVEVKVFKLGSAGGSA [r15_517_TrMRF] | 4.41 ± 0.17 kcal/mol
55 | SIKELAKELPGFQVSVEPDDPGQVKITIMVPDDPQQQKRFQNKIIELANDIQGEHGMPVTIEIQPVPPGDSA [r9_1099_TrROS] | 0.0536 ± 0.096 kcal/mol
56 | SAGGSAGGSAGKPEVEVETRLIKIDEEKGYYLRVTRVRVKNEDGSEFEFLSIEIIPKEDLSAGGSAGGSAGG [r11_51_TrROS_Hall] | 3.91 ± 0.052 kcal/mol
57 | SAGGSAGGSDKYVVVIRVVNKETKKVTTLVFEGLKTPEELKAAVEALLPPGVVKVEIRVVKLPSAGGSAGGS [r20_29_TrROS_Hall] | 3.28 ± 0.12 kcal/mol
58 | SAGGGSTTTRTIGSKDGTVATVTVTTDPATGTTTVTISSPSPEVLEEVAAQLGLPVREVLPDGTVVLASAGG [r13_937_JUSTAS] | 1.25 ± 0.015 kcal/mol
59 | SAMKIKIKVIGVLKPENHALIFLELDDSIPPEIPVVIRIKNENGEILEIPIEGNRALLVVDDRKIEILTSAG [r14_350_TrMRF] | 1.67 ± 0.072 kcal/mol
60 | SAGGSAGGSAKKKILVKKPDGRLLLIEIDKDKPNTVRIYDIDTGKKIELSVEDLKKLKIKKSAGGSAGGSAG [r3_451_TrROS_Hall] | 2.35 ± 0.052 kcal/mol
61 | SSEELRELILNEAAKLGVKIKEIKVKEDPSTNTVSIEITVPDGKVIKLSFTRTSDGGYSYDINELKAGLESA [r9_85_JUSTAS] | 6.2 ± 0.14 kcal/mol
62 | SAPLTPEEAEEWAETLADELADKAGIPNVEIKVEPSPDGYWTAEIRFPNNGKKIRITWENGRPKITEIESAG [r14_925_TrROS] | 2.63 ± 0.093 kcal/mol
63 | SAGGSKKVDIKPGKVKKVEVKTLPNGKKLLVLYFPLEDGKEKVVVISSDFKTPEEALEAAYKQLGKSAGGSA [r2_347_TrMRF] | 1.21 ± 0.066 kcal/mol
